In US20210205445A1:

Target: Dectin-2 on murine bone marrow-derived dendritic cells (mouse) (UniProt Q9JKF4)
Test: cell-based or functional assay

Sequence of UniProt Q9JKF4 (Q9JKF4 whole entry): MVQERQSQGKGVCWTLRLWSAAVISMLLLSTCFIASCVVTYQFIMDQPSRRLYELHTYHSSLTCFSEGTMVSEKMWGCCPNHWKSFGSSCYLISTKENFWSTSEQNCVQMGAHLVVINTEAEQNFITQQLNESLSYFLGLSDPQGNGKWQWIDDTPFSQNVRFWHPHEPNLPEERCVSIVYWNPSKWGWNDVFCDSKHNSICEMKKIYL

## recombinant Bl-Eng2 (Blastomyces dermatitidis Eng2 expressed in Pichia pastoris, C-terminal Myc-6xHis tag) (ligand)
  Ligand induced IL-6 production by murine BMDC, against Furfurman, Man-Lam and MP98: > 100 fold
